Test results from US20210032299A1.
Starred links: 1 amine or outer side, 2 acyl side, 3 side chain; linkers in the order of their positions; H or OH if unused. Non-standard residues stand in square brackets, D forms with d. Groups on a side chain read outwards from the residue. No end group written: not given here. *: point of attachment. C20 diacid = O=C(O)CCCCCCCCCCCCCCCCCCC(=O)*; C18 diacid = O=C(O)CCCCCCCCCCCCCCCCC(=O)*; αMePhe(2-F) = C[C@](N)(Cc1ccccc1F)C(=O)O; γGlu = O=C(O)[C@H](CCC(=O)[*:2])N[*:1]; 4Pal = N[C@@H](Cc1ccncc1)C(=O)O; αMeL = CC(C)C[C@](C)(N)C(=O)O; Orn = NCCC[C@H](N)C(=O)O; AEEA = NCCOCCOCC(=O)O; Aib = CC(C)(N)C(=O)O

Molecular target: T1, human glucose-dependent insulinotropic polypeptide (GIP) receptor (human), P48546
T1 chain: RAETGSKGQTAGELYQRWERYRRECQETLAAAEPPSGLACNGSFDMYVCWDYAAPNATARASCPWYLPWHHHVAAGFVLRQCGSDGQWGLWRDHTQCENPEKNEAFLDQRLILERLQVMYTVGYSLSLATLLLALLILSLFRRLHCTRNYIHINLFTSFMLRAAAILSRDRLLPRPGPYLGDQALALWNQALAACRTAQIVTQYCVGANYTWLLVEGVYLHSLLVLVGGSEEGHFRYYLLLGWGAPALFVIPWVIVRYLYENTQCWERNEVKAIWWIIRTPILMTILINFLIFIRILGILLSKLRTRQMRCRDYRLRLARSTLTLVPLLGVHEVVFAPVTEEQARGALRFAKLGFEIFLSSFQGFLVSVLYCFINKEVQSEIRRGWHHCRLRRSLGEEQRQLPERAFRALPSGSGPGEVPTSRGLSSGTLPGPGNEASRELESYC
Assay: SPA, displacement of [125I]-GIP from hGIPR membranes, 0.1% bacitracin

Binder	Ki [nM]
Y[Aib]EGTFISDYSI[αMeL]LD[Orn]IHQ[Aib]DFVE[4Pal]K([AEEA-AEEA-γGlu-C20 diacid])LEGGPSSGAPPPS-NH2 (N-terminus assumed; SMILES CC[C@H](C)[C@H](NC(=O)[C@H](CCCN)NC(=O)[C@H](CC(=O)O)NC(=O)[C@H](CC(C)C)NC(=O)[C@](C)(CC(C)C)NC(=O)[C@@H](NC(=O)[C@H](CO)NC(=O)[C@H](Cc1ccc(O)cc1)NC(=O)[C@H](CC(=O)O)NC(=O)[C@H](CO)NC(=O)[C@@H](NC(=O)[C@H](Cc1ccccc1)NC(=O)[C@@H](NC(=O)CNC(=O)[C@H](CCC(=O)O)NC(=O)C(C)(C)NC(=O)[C@@H](N)Cc1ccc(O)cc1)[C@@H](C)O)[C@@H](C)CC)[C@@H](C)CC)C(=O)N[C@@H](Cc1c[nH]cn1)C(=O)N[C@@H](CCC(N)=O)C(=O)NC(C)(C)C(=O)N[C@@H](CC(=O)O)C(=O)N[C@@H](Cc1ccccc1)C(=O)N[C@H](C(=O)N[C@@H](CCC(=O)O)C(=O)N[C@@H](Cc1ccncc1)C(=O)N[C@@H](CCCCNC(=O)COCCOCCNC(=O)COCCOCCNC(=O)CC[C@H](NC(=O)CCCCCCCCCCCCCCCCCCC(=O)O)C(=O)O)C(=O)N[C@@H](CC(C)C)C(=O)N[C@@H](CCC(=O)O)C(=O)NCC(=O)NCC(=O)N1CCC[C@H]1C(=O)N[C@@H](CO)C(=O)N[C@@H](CO)C(=O)NCC(=O)N[C@@H](C)C(=O)N1CCC[C@H]1C(=O)N1CCC[C@H]1C(=O)N1CCC[C@H]1C(=O)N[C@@H](CO)C(N)=O)C(C)C) [Example 108]	0.134
Y[Aib]EGTFISDYSI[αMeL]LDKIHQ[Aib]DFVE[4Pal]K([AEEA-AEEA-γGlu-C20 diacid])LEGGPSSGAPPPS-NH2 (N-terminus assumed; SMILES CC[C@H](C)[C@H](NC(=O)[C@H](CCCCN)NC(=O)[C@H](CC(=O)O)NC(=O)[C@H](CC(C)C)NC(=O)[C@](C)(CC(C)C)NC(=O)[C@@H](NC(=O)[C@H](CO)NC(=O)[C@H](Cc1ccc(O)cc1)NC(=O)[C@H](CC(=O)O)NC(=O)[C@H](CO)NC(=O)[C@@H](NC(=O)[C@H](Cc1ccccc1)NC(=O)[C@@H](NC(=O)CNC(=O)[C@H](CCC(=O)O)NC(=O)C(C)(C)NC(=O)[C@@H](N)Cc1ccc(O)cc1)[C@@H](C)O)[C@@H](C)CC)[C@@H](C)CC)C(=O)N[C@@H](Cc1c[nH]cn1)C(=O)N[C@@H](CCC(N)=O)C(=O)NC(C)(C)C(=O)N[C@@H](CC(=O)O)C(=O)N[C@@H](Cc1ccccc1)C(=O)N[C@H](C(=O)N[C@@H](CCC(=O)O)C(=O)N[C@@H](Cc1ccncc1)C(=O)N[C@@H](CCCCNC(=O)COCCOCCNC(=O)COCCOCCNC(=O)CC[C@H](NC(=O)CCCCCCCCCCCCCCCCCCC(=O)O)C(=O)O)C(=O)N[C@@H](CC(C)C)C(=O)N[C@@H](CCC(=O)O)C(=O)NCC(=O)NCC(=O)N1CCC[C@H]1C(=O)N[C@@H](CO)C(=O)N[C@@H](CO)C(=O)NCC(=O)N[C@@H](C)C(=O)N1CCC[C@H]1C(=O)N1CCC[C@H]1C(=O)N1CCC[C@H]1C(=O)N[C@@H](CO)C(N)=O)C(C)C) [Example 109]	0.117
Y[Aib]EGTFISDYSI[αMeL]LDKIHQ[Aib]DFVE[4Pal]K([AEEA-AEEA-γGlu-C18 diacid])LEGGPSSGAPPPS-NH2 (N-terminus assumed; SMILES CC[C@H](C)[C@H](NC(=O)[C@H](CCCCN)NC(=O)[C@H](CC(=O)O)NC(=O)[C@H](CC(C)C)NC(=O)[C@](C)(CC(C)C)NC(=O)[C@@H](NC(=O)[C@H](CO)NC(=O)[C@H](Cc1ccc(O)cc1)NC(=O)[C@H](CC(=O)O)NC(=O)[C@H](CO)NC(=O)[C@@H](NC(=O)[C@H](Cc1ccccc1)NC(=O)[C@@H](NC(=O)CNC(=O)[C@H](CCC(=O)O)NC(=O)C(C)(C)NC(=O)[C@@H](N)Cc1ccc(O)cc1)[C@@H](C)O)[C@@H](C)CC)[C@@H](C)CC)C(=O)N[C@@H](Cc1c[nH]cn1)C(=O)N[C@@H](CCC(N)=O)C(=O)NC(C)(C)C(=O)N[C@@H](CC(=O)O)C(=O)N[C@@H](Cc1ccccc1)C(=O)N[C@H](C(=O)N[C@@H](CCC(=O)O)C(=O)N[C@@H](Cc1ccncc1)C(=O)N[C@@H](CCCCNC(=O)COCCOCCNC(=O)COCCOCCNC(=O)CC[C@H](NC(=O)CCCCCCCCCCCCCCCCC(=O)O)C(=O)O)C(=O)N[C@@H](CC(C)C)C(=O)N[C@@H](CCC(=O)O)C(=O)NCC(=O)NCC(=O)N1CCC[C@H]1C(=O)N[C@@H](CO)C(=O)N[C@@H](CO)C(=O)NCC(=O)N[C@@H](C)C(=O)N1CCC[C@H]1C(=O)N1CCC[C@H]1C(=O)N1CCC[C@H]1C(=O)N[C@@H](CO)C(N)=O)C(C)C) [Example 110]	0.339
Y[Aib]EGTFISDYSI[αMeL]LD[Orn]IHQ[Aib]DFVE[4Pal]K([AEEA-AEEA-γGlu-C18 diacid])LEGGPSSGAPPPS-NH2 (N-terminus assumed; SMILES CC[C@H](C)[C@H](NC(=O)[C@H](CCCN)NC(=O)[C@H](CC(=O)O)NC(=O)[C@H](CC(C)C)NC(=O)[C@](C)(CC(C)C)NC(=O)[C@@H](NC(=O)[C@H](CO)NC(=O)[C@H](Cc1ccc(O)cc1)NC(=O)[C@H](CC(=O)O)NC(=O)[C@H](CO)NC(=O)[C@@H](NC(=O)[C@H](Cc1ccccc1)NC(=O)[C@@H](NC(=O)CNC(=O)[C@H](CCC(=O)O)NC(=O)C(C)(C)NC(=O)[C@@H](N)Cc1ccc(O)cc1)[C@@H](C)O)[C@@H](C)CC)[C@@H](C)CC)C(=O)N[C@@H](Cc1c[nH]cn1)C(=O)N[C@@H](CCC(N)=O)C(=O)NC(C)(C)C(=O)N[C@@H](CC(=O)O)C(=O)N[C@@H](Cc1ccccc1)C(=O)N[C@H](C(=O)N[C@@H](CCC(=O)O)C(=O)N[C@@H](Cc1ccncc1)C(=O)N[C@@H](CCCCNC(=O)COCCOCCNC(=O)COCCOCCNC(=O)CC[C@H](NC(=O)CCCCCCCCCCCCCCCCC(=O)O)C(=O)O)C(=O)N[C@@H](CC(C)C)C(=O)N[C@@H](CCC(=O)O)C(=O)NCC(=O)NCC(=O)N1CCC[C@H]1C(=O)N[C@@H](CO)C(=O)N[C@@H](CO)C(=O)NCC(=O)N[C@@H](C)C(=O)N1CCC[C@H]1C(=O)N1CCC[C@H]1C(=O)N1CCC[C@H]1C(=O)N[C@@H](CO)C(N)=O)C(C)C) [Example 111]	0.0871
Y[Aib]EGT[αMePhe(2-F)]ISDYSIALDKIHQ[Aib]DFVE[4Pal]K([AEEA-AEEA-γGlu-C20 diacid])LEQGPSSGAPPPS-NH2 (N-terminus assumed; SMILES CC[C@H](C)[C@H](NC(=O)[C@H](CO)NC(=O)[C@H](Cc1ccc(O)cc1)NC(=O)[C@H](CC(=O)O)NC(=O)[C@H](CO)NC(=O)[C@@H](NC(=O)[C@](C)(Cc1ccccc1F)NC(=O)[C@@H](NC(=O)CNC(=O)[C@H](CCC(=O)O)NC(=O)C(C)(C)NC(=O)[C@@H](N)Cc1ccc(O)cc1)[C@@H](C)O)[C@@H](C)CC)C(=O)N[C@@H](C)C(=O)N[C@@H](CC(C)C)C(=O)N[C@@H](CC(=O)O)C(=O)N[C@@H](CCCCN)C(=O)N[C@H](C(=O)N[C@@H](Cc1c[nH]cn1)C(=O)N[C@@H](CCC(N)=O)C(=O)NC(C)(C)C(=O)N[C@@H](CC(=O)O)C(=O)N[C@@H](Cc1ccccc1)C(=O)N[C@H](C(=O)N[C@@H](CCC(=O)O)C(=O)N[C@@H](Cc1ccncc1)C(=O)N[C@@H](CCCCNC(=O)COCCOCCNC(=O)COCCOCCNC(=O)CC[C@H](NC(=O)CCCCCCCCCCCCCCCCCCC(=O)O)C(=O)O)C(=O)N[C@@H](CC(C)C)C(=O)N[C@@H](CCC(=O)O)C(=O)N[C@@H](CCC(N)=O)C(=O)NCC(=O)N1CCC[C@H]1C(=O)N[C@@H](CO)C(=O)N[C@@H](CO)C(=O)NCC(=O)N[C@@H](C)C(=O)N1CCC[C@H]1C(=O)N1CCC[C@H]1C(=O)N1CCC[C@H]1C(=O)N[C@@H](CO)C(N)=O)C(C)C)[C@@H](C)CC) [Example 114]	0.121
Y[Aib]EGTFISDYSI[αMeL]LDKIRQ[Aib]DFVEYK([AEEA-AEEA-γGlu-C20 diacid])LEAGPSSGAPPPS-NH2 (N-terminus assumed; SMILES CC[C@H](C)[C@H](NC(=O)[C@H](CCCCN)NC(=O)[C@H](CC(=O)O)NC(=O)[C@H](CC(C)C)NC(=O)[C@](C)(CC(C)C)NC(=O)[C@@H](NC(=O)[C@H](CO)NC(=O)[C@H](Cc1ccc(O)cc1)NC(=O)[C@H](CC(=O)O)NC(=O)[C@H](CO)NC(=O)[C@@H](NC(=O)[C@H](Cc1ccccc1)NC(=O)[C@@H](NC(=O)CNC(=O)[C@H](CCC(=O)O)NC(=O)C(C)(C)NC(=O)[C@@H](N)Cc1ccc(O)cc1)[C@@H](C)O)[C@@H](C)CC)[C@@H](C)CC)C(=O)N[C@@H](CCCNC(=N)N)C(=O)N[C@@H](CCC(N)=O)C(=O)NC(C)(C)C(=O)N[C@@H](CC(=O)O)C(=O)N[C@@H](Cc1ccccc1)C(=O)N[C@H](C(=O)N[C@@H](CCC(=O)O)C(=O)N[C@@H](Cc1ccc(O)cc1)C(=O)N[C@@H](CCCCNC(=O)COCCOCCNC(=O)COCCOCCNC(=O)CC[C@H](NC(=O)CCCCCCCCCCCCCCCCCCC(=O)O)C(=O)O)C(=O)N[C@@H](CC(C)C)C(=O)N[C@@H](CCC(=O)O)C(=O)N[C@@H](C)C(=O)NCC(=O)N1CCC[C@H]1C(=O)N[C@@H](CO)C(=O)N[C@@H](CO)C(=O)NCC(=O)N[C@@H](C)C(=O)N1CCC[C@H]1C(=O)N1CCC[C@H]1C(=O)N1CCC[C@H]1C(=O)N[C@@H](CO)C(N)=O)C(C)C) [Example 118]	0.0696
